Measured values published in paper PMC8907715, “Selection and identification of high‐affinity aptamer of Kunitz trypsin inhibitor and their application in rapid and specific detection”.

Columns and labels:
[1] = target: T1, Kunitz trypsin inhibitor (KTI) (UniProt P01070); test: GO fluorescence assay; details: FAM-aptamer 0-600 nM with GO 60 min, then 1 uM KTI 2 h at room temperature in the dark; assay buffer, salt and pH not stated (oligos dissolved in TE pH 8.0)
T1 sequence: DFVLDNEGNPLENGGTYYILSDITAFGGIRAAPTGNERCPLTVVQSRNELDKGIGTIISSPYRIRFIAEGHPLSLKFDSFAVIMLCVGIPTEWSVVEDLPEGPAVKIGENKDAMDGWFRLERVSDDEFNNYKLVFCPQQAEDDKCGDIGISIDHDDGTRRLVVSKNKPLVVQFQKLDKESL

[2] = target: T2, Kunitz trypsin inhibitor (KTI) (UniProt P01070 25-205); test: GO fluorescence assay; text gives 52.6 ± 11.4; FAM-aptamer 0-600 nM with GO 60 min, then 1 uM KTI 2 h at room temperature in the dark; assay buffer, salt and pH not stated (oligos dissolved in TE pH 8.0); details: protein: commercial; label: 5'-FAM
T2 sequence: T1 sequence

For “CCAACCTGTGGCATTTGGTAACTTGATCTTACGGTGTTCG [Akti-10]”, the Kd [1] was 22.6 nM.

Molecule “CTGGTGTTTTCTTTACGCATAACAAGGCCCCTGAGAGGCT [Akti-9]” has a Kd [1] of 134 nM.

Work on “GGTCGTGAGGCCCACCGCTGAGCTCTAGTATCGCTCGGCG [Akti-11]” yielded a Kd [1] of 116 nM.

“TCTGGCTTCTGATCTGATGTTTTTACTATCGGTATTTCTA [Akti-15]” showed a Kd [1] of 67.9 nM.

For “TGTACCGCCCACCTGCCGCTAACGGCGGTGCTGCGGTGCG [Akti-28]”, the Kd [1] was 164 nM.

B1: Akti-5 (ssDNA)
DNA: CTTCGTATCCTGTGCTGCAGTTGTTTTTAAGTGCTGGGAG
B1 showed a Kd [2] of 52.5 ± 11.3 nM.
